# Test results as given in PMC11704961.
# T1: SRF (His-SRF);Elk1 (GST-His-Elk1) (human;human, UniProt P11831;P19419 1-508;1-428, |)
# T1 sequence 1: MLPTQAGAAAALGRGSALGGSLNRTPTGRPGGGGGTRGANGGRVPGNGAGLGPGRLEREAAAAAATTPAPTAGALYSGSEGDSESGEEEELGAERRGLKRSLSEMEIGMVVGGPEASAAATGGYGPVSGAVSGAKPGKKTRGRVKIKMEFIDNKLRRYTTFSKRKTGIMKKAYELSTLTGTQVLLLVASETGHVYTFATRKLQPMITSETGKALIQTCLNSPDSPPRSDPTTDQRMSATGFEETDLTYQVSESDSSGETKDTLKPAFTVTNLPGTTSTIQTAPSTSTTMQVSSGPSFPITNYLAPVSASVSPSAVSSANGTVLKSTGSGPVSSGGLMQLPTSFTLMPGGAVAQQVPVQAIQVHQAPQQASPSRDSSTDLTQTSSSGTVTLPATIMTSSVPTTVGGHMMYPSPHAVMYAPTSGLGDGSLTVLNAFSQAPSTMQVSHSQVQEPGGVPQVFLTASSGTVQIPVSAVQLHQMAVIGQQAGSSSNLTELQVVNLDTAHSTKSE
# T1 sequence 2: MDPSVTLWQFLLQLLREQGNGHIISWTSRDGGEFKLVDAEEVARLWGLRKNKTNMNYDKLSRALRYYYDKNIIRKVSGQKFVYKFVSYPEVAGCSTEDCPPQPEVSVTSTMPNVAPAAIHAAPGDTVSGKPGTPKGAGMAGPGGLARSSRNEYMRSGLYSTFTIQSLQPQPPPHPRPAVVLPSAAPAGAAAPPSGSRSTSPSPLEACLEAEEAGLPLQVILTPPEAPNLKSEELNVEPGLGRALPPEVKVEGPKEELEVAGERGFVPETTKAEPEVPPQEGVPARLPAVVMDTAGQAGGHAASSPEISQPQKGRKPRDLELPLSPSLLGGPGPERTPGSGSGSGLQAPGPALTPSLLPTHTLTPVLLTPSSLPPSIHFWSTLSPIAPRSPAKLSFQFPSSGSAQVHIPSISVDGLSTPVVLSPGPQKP
# T2: SRF (His-SRF) (human, UniProt P11831 1-508)
# T2 sequence: T1 sequence 1
# B1: c-fos SRE EMSA probe (dsDNA)
# DNA 1: CTAAGCTTGCTGACGCAGATGTCCTAATATGGACATCCTGTCCCGGGGA
# DNA 2: TCCCCGGGACAGGATGTCCATATTAGGACATCTGCGTCAGCAAGCTTAG
# How the values were obtained:
# Assay in all cases: EMSA
# IPMK = IPMK (human, UniProt Q8NFU5 1-416)
# Chain of IPMK (Q8NFU5 whole entry): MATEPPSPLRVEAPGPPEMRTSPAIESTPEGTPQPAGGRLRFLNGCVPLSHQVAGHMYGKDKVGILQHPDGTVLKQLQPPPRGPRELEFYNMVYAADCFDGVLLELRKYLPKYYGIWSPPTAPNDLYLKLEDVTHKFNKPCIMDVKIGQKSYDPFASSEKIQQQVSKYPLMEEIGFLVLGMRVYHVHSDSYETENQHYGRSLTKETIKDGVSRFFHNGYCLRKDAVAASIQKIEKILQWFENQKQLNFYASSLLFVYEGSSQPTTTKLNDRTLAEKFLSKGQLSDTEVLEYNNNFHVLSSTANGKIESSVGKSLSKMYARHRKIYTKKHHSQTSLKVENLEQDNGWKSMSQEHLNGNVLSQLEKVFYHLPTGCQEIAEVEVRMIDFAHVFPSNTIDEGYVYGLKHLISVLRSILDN
# [1] = target: T1, SRF (His-SRF);Elk1 (GST-His-Elk1)
# SRF (His-SRF) = target: T2, SRF (His-SRF)
binder,measurement,setting,value
B1,binding result,IPMK,no binding
same,binding result,[1],binds
same,binding result,SRF (His-SRF),binds
